What follows are substances tested against B. mori CS-1 (Centromeric Subunit protein 1) (Bombyx mori) (assay: SEC-MALS).

With “B. mori CS-2 (Centromeric Subunit protein 2) (natural protein)” as the substance, how does the stoichiometry N read?
The stoichiometry N was 1.

With “B. mori CS-4 (Centromeric Subunit protein 4) (natural protein)” as the substance, how does the stoichiometry N read?
The stoichiometry N was 1.

How did the stoichiometry N turn out when “B. mori CS-3 (Centromeric Subunit protein 3) (natural protein)” was run?
Its stoichiometry N is 1.
